B1: IRS1-WT (dsDNA)
DNA 1: AGTGTGTTGGTATTTTTCCCTCAGTTC
DNA 2: GAACTGAGGGAAAAATACCAACACACT
B2: IRS2-WT (dsDNA)
DNA 1: ACATACAGGCTATTTTGTTGATTAAAC
DNA 2: GTTTAATCAACAAAATAGCCTGTATGT
B3: IRS3-WT (dsDNA)
DNA 1: GCCACTTGCTTGTTTTGGAAGGAAAAT
DNA 2: ATTTTCCTTCCAAAACAAGCAAGTGGC

Target: PARIS (ZNF746) (Homo sapiens, UniProt Q6NUN9 SEQ:1-644)
Experiment: EMSA; competed by unlabeled WT oligo
Conditions: tags: GST; label: 32P

Chain of PARIS (ZNF746) (Q6NUN9 whole entry): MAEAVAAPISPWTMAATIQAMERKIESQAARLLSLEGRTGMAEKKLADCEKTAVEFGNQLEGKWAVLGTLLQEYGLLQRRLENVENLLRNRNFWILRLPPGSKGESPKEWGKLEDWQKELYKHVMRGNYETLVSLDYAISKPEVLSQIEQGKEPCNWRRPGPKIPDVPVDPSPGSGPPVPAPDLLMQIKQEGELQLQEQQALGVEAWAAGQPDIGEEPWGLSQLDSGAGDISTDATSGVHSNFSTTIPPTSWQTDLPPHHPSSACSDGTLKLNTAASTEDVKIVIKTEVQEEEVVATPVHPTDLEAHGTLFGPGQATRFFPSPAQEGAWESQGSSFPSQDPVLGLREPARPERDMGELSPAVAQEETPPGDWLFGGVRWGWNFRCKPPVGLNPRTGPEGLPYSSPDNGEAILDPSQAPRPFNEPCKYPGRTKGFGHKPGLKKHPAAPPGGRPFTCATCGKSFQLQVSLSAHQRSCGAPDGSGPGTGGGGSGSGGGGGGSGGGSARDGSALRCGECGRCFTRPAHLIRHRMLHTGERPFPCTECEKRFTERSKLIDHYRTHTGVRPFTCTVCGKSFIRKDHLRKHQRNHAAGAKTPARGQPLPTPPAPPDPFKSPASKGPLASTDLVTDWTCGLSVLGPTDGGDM

Binding result, binds:
B1
B2
B3

Reference: patent US20120122958, “TRANSCRIPTIONAL REPRESSION LEADING TO PARKINSON'S DISEASE” (published 2012)
